According to publication PMC4057782, “tRNA synthetase counteracts c-Myc to develop functional vasculature”:

Assays:
c-Myc;MAX = c-Myc;MAX (Homo sapiens;Homo sapiens, UniProt P01106;P61244 16-454;1-160, |); assay: EMSA; competed off by SerRS at same concentrations; EMSA: 20 mM Tris-HCl pH 8.0, 60 mM KCl, 5 mM MgCl2, 0.1 mg/ml BSA, 10 ng/ul poly(dG-dC), 1 mM DTT, 30 min, room temperature; SPR: 10 mM HEPES pH 7.4, 150 mM NaCl, 0.005% P-20; footprint: 20 mM HEPES pH 7.9, 120 mM KCl, 8 mM MgCl2, 0.2 mM EDTA, 0.5 mM DTT, 0.2 mg/ml BSA, 10 ug/ml poly(dG-dC), 5% glycerol, room temperature; conditions: protein: recombinant;recombinant; tags: C-terminal His tag;C-terminal His tag; label: 5' 32P
SerRS [1] = target: T1, SerRS (Homo sapiens, UniProt P49591 1-514); assay: EMSA; 5 mM Mg2+; EMSA: 20 mM Tris-HCl pH 8.0, 60 mM KCl, 5 mM MgCl2, 0.1 mg/ml BSA, 10 ng/ul poly(dG-dC), 1 mM DTT, 30 min, room temperature; SPR: 10 mM HEPES pH 7.4, 150 mM NaCl, 0.005% P-20; footprint: 20 mM HEPES pH 7.9, 120 mM KCl, 8 mM MgCl2, 0.2 mM EDTA, 0.5 mM DTT, 0.2 mg/ml BSA, 10 ug/ml poly(dG-dC), 5% glycerol, room temperature; conditions: protein: recombinant; tags: C-terminal His tag (pET-20b); chain copies: 2; label: 5' 32P
MAX = MAX (Homo sapiens, UniProt P61244 1-160); assay: EMSA; MAX/MAX homodimer, not displaced by SerRS; EMSA: 20 mM Tris-HCl pH 8.0, 60 mM KCl, 5 mM MgCl2, 0.1 mg/ml BSA, 10 ng/ul poly(dG-dC), 1 mM DTT, 30 min, room temperature; SPR: 10 mM HEPES pH 7.4, 150 mM NaCl, 0.005% P-20; footprint: 20 mM HEPES pH 7.9, 120 mM KCl, 8 mM MgCl2, 0.2 mM EDTA, 0.5 mM DTT, 0.2 mg/ml BSA, 10 ug/ml poly(dG-dC), 5% glycerol, room temperature; conditions: protein: recombinant; tags: C-terminal His tag; chain copies: 2; label: 5' 32P
SerRS [2] = target: T1, SerRS; assay: SPR; HBS-EP pH 7.4, 1:1 fit; EMSA: 20 mM Tris-HCl pH 8.0, 60 mM KCl, 5 mM MgCl2, 0.1 mg/ml BSA, 10 ng/ul poly(dG-dC), 1 mM DTT, 30 min, room temperature; SPR: 10 mM HEPES pH 7.4, 150 mM NaCl, 0.005% P-20; footprint: 20 mM HEPES pH 7.9, 120 mM KCl, 8 mM MgCl2, 0.2 mM EDTA, 0.5 mM DTT, 0.2 mg/ml BSA, 10 ug/ml poly(dG-dC), 5% glycerol, room temperature; conditions: protein: recombinant; tags: C-terminal His tag (pET-20b); chain copies: 2; label: biotin; 3' overhang 3 nt on strand 1
SerRS [3] = target: T1, SerRS; assay: EMSA; minimal binding site; EMSA: 20 mM Tris-HCl pH 8.0, 60 mM KCl, 5 mM MgCl2, 0.1 mg/ml BSA, 10 ng/ul poly(dG-dC), 1 mM DTT, 30 min, room temperature; SPR: 10 mM HEPES pH 7.4, 150 mM NaCl, 0.005% P-20; footprint: 20 mM HEPES pH 7.9, 120 mM KCl, 8 mM MgCl2, 0.2 mM EDTA, 0.5 mM DTT, 0.2 mg/ml BSA, 10 ug/ml poly(dG-dC), 5% glycerol, room temperature; conditions: protein: recombinant; tags: C-terminal His tag (pET-20b); chain copies: 2; label: 5' 32P
SerRS [4] = target: T1, SerRS; assay: EMSA; interaction not affected; EMSA: 20 mM Tris-HCl pH 8.0, 60 mM KCl, 5 mM MgCl2, 0.1 mg/ml BSA, 10 ng/ul poly(dG-dC), 1 mM DTT, 30 min, room temperature; SPR: 10 mM HEPES pH 7.4, 150 mM NaCl, 0.005% P-20; footprint: 20 mM HEPES pH 7.9, 120 mM KCl, 8 mM MgCl2, 0.2 mM EDTA, 0.5 mM DTT, 0.2 mg/ml BSA, 10 ug/ml poly(dG-dC), 5% glycerol, room temperature; conditions: protein: recombinant; tags: C-terminal His tag (pET-20b); chain copies: 2; label: 5' 32P

T1 sequence (P49591 whole entry): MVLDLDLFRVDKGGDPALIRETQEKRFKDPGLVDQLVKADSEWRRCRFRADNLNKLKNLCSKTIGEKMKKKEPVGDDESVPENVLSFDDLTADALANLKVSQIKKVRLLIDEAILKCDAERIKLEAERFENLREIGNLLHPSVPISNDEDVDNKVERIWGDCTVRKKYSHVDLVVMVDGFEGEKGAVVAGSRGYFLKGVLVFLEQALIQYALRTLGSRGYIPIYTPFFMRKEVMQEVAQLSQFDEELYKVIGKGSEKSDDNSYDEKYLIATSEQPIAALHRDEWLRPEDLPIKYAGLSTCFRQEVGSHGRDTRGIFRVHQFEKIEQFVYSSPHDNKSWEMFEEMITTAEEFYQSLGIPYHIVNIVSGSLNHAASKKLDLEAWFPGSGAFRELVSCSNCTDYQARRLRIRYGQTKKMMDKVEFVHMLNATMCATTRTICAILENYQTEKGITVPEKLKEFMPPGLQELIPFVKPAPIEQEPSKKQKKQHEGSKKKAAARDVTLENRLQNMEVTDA
MAX, sequence (P61244 whole entry): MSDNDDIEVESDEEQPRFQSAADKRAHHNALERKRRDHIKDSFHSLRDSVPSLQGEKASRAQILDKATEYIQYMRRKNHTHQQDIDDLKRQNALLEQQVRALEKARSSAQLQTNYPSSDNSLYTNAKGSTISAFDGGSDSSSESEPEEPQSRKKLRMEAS
c-Myc;MAX, sequence (P01106 16-454, chain 1 of 2): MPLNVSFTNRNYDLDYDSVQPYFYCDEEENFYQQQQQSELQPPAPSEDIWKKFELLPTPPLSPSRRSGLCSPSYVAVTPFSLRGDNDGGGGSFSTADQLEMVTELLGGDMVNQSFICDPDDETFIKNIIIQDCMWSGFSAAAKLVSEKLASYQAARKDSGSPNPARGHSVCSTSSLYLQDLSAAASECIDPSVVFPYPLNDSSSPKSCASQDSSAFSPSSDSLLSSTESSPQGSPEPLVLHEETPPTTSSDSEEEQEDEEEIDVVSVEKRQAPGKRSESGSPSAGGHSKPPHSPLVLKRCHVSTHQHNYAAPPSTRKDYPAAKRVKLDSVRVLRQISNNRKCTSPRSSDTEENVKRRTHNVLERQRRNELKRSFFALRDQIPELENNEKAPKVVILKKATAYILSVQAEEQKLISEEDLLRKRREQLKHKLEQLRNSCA
c-Myc;MAX, sequence (P61244 whole entry, chain 2 of 2): as the sequence (P61244 whole entry) above

B1: VEGFA promoter 27-bp (-62 to -36) (dsDNA)
DNA 1: GGCGGGGCGGAGCCATGCGCCCCCCCC
DNA 2: GGGGGGGGCGCATGGCTCCGCCCCGCC
binding result (c-Myc;MAX): binds | Kd (SerRS [1]): 212 nM | binding result (MAX): binds

B2: VEGFA promoter SPR duplex (dsDNA)
DNA 1: GGCGGGGCGGAGCCATGCGCCCCCCCCTTTATA
DNA 2: AAAGGGGGGGGCGCATGGCTCCGCCCCGCC
modifications: 3' biotin on strand 1
Kd (SerRS [2]): 265 nM

B3: VEGFA minimal SerRS site (-59 to -38) (dsDNA)
DNA 1: GGGCGGAGCCATGCGCCCCCCC
DNA 2: GGGGGGGCGCATGGCTCCGCCC
binding result (SerRS [3]): binds

B4: 27-bp E-box double mutant CTTACG (dsDNA)
DNA 1: GGCGGGGCGGAGCCTTACGCCCCCCCC
DNA 2: GGGGGGGGCGTAAGGCTCCGCCCCGCC
binding result (SerRS [4]): binds
